Experimental findings from article PMC4018323 (Cell, 2014) are described below.

Where a chain is given by its changes, count along the chain named.

This test concerns the target T1, 6xHis-SUMO-tagged MYO18A motor domain (aa 408-1,242) (UniProt Q92614 408-1242).
T1 sequence (looked up): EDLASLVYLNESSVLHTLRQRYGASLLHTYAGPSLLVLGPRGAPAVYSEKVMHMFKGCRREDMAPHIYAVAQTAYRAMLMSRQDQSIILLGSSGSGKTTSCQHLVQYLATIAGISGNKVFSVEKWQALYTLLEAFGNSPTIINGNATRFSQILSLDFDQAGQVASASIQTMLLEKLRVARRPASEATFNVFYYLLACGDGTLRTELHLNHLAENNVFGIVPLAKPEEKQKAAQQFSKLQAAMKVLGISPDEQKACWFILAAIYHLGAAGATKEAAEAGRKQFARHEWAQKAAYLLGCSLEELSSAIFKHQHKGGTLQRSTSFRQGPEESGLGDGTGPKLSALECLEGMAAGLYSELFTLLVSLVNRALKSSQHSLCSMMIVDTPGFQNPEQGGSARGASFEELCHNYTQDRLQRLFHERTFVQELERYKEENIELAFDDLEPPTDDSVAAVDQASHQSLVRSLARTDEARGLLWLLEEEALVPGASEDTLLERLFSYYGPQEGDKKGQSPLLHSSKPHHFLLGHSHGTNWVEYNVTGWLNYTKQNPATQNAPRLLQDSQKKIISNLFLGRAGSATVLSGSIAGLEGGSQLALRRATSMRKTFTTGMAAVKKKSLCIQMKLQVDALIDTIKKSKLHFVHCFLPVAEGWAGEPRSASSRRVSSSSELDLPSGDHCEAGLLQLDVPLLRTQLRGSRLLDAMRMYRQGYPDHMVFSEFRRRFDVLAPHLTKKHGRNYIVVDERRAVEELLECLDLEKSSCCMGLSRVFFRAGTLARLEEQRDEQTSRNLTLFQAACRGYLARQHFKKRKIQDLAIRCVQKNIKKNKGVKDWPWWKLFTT
Nature of the test: pull-down.

B1: GOLPH3 DQ-DVQ phosphomimetic mutant, purified, bacterially expressed (natural protein, UniProt Q9H4A6 1-298, looked up)
chain: MTSLTQRSSGLVQRRTEASRNAADKERAAGGGAGSSEDDAQSRRDEQDDDDKGDSKETRLTLMEEVLLLGLKDREGYTSFWNDCISSGLRGCMLIELALRGRLQLEACGMRRKSLLTRKVICKSDAPTGDVLLDEALKHVKEDQPPEDVQNWIELLSGETWNPLKLHYQLRNVRERLAKNLVEKGVLTTEKQNFLLFDMTTHPLTNNNIKQRLIKKVQEAVLDKWVNDPHRMDRRLLALIYLAHASDVLENAFAPLLDEQYDLATKRVRQLLDLDPEVECLKANTNEVLWAVVAAFTK
On to B1, for which the “fold of interaction versus WT” value was 2.2 fold.

B2: GOLPH3 EQ-EVQ phosphomimetic mutant, purified, bacterially expressed (natural protein, UniProt Q9H4A6 1-298, looked up)
chain: B1 chain with D143E, D148E
As for B2, the “fold of interaction versus WT” value is 1.9 fold.
